We go through 4 molecules from US8703698B2, “Compositions and methods for treating atherosclerosis” (The University of Chicago, priority 2003, dated 2014).

One data set deals with THP-1 cells. As to the kind of experiment: Cholesterol efflux from cholesterol-laden human THP-1 cells. The format is cell-based. The note with it: liposomal formulations; cholesterol-laden THP-1 cells differentiated with phorbol myristate acetate. The method, then: These monocytes were differentiated into macrophages with phorbol myristate acetate (100 nM). In these experiments, cholesterol-laden human THP-1 cells were exposed to liposomal formulations comprising a peptide corresponding to amino acids 1-20 of murine SAA2.1 (SEQ ID NO:1), a peptide corresponding to amino acids 74-103 of murine SAA2.1 (SEQ ID NO:4), a peptide corresponding to amino acids 1-20 of murine SAA1.1 plus an arginine at the N-terminus (SEQ ID NO:7), or a peptide corresponding to amino acids 1-20 of murine SAA2.1 (SEQ ID NO:1) and a peptide corresponding to amino acids 74-103 (SEQ ID NO:4) of murine SAA2.1. Results from these experiments are depicted in FIG. 4. […] Studies were carried out to determine whether murine SAA2.1 increases cholesterol export from a human derived monocytic cell line, THP-1 (obtained from American Type Culture Collection, Manassas, Va.; ATCC#TIB-202). Human monocytes were cultured in T-75 flasks with 30 ml RPMI 1640 medium containing 2 mM L-glutamine, 4.5 g/L glucose, 10 mM HEPES, 1.0 mM […] and supplemented with 0.05 mM 2-mercaptoethanol and 10% fetal bovine serum. Subsequently, five million cells were placed in each well of a 6-well tissue culture plate. The monocytes were differentiated into macrophages by treatment with phorbol myristate acetate (100 nM). THP-1 macrophages were enriched with cholesterol by incubating with red blood cells membrane fragments (175 μg as cholesterol) that had been previously labelled with 0.5 μCi/mL[^3H]-cholesterol at 37° C. for 6 hours in 0.2% bovine serum albumin, followed by an overnight equilibration period. Cells were washed four times with PBS/BSA prior to efflux studies. Cells were then incubated at 37° C. with 2 mL RPMI-BSA containing 5% LPDS and 50 μg/mL of either native HDL, SAA-HDL, liposomes containing 2 μmoles of apoA-I, SAA1.1 or 2.1, or liposomes containing 0.5 μmoles synthetic peptides corresponding to amino acid residues 1-20 (SEQ ID NO:1), 21-50 (SEQ ID NO:2), 51-80 (SEQ ID NO:3) or 74-103 (SEQ ID NO:4) of murine SAA2.1. The efflux media were collected at 0, 1, 2, 4, 8, 16 and 24 hours, centrifuged to remove cell debris, and then used to measure the exported counts. […] A portion of the cells was lysed in 0.1N NaOH to estimate both the remaining radioactivity and the cellular protein content. Cellular lipids were extracted from the remaining portion of the cells and analyzed by thin-layer chromatography as described by Mendez et al. (J. Clin. Invest. 1994 94:1698-1705) and Oram et al. (Arterioscler. Thromb. 1991 11:403-414). The radioactivity in appropriate spots was measured to determine total cellular cholesterol counts. Efflux of radioactive label to the medium was calculated as the percentage of total counts (cell+medium counts) in each well.

Data set [1] deals with T1, acyl CoA:cholesterol acyl transferase (Mus musculus, UniProt Q61263).
T1 construct: The relative activity of acyl CoA:cholesterol acyl transferase was determined in cholesterol-laden cells; host or cells: J774 mouse macrophages, cholesterol-loaded
T1 sequence (Q61263 1-540): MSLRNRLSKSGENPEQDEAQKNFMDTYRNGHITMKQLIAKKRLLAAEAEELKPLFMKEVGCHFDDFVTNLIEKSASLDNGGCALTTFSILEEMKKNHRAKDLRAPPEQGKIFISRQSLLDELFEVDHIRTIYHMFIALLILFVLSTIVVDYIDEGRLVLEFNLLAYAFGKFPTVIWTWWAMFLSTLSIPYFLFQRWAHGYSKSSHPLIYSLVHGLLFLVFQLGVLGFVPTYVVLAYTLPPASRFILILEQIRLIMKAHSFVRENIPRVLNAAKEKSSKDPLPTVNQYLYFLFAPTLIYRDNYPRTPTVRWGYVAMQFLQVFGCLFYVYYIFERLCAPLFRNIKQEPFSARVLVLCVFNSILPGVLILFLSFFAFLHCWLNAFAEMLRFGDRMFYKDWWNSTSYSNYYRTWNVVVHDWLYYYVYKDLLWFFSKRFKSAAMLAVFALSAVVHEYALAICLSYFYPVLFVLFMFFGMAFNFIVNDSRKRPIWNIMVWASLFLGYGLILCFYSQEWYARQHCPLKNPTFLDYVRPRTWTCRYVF
The conditions noted are these: intact murine macrophages and post-nuclear homogenates; Ely et al. 2001; cited from earlier work.

The test system of data set [2] is cholesterol ester hydrolase. Briefly: Rate of hydrolysis of cholesteryl ester in cholesterol-laden J774 cells (cholesterol ester hydrolase activity). In kind it is cell-based, murine. How it is done: Identification of the domain of SAA2.1 that is responsible for enhancing cholesterol ester hydrolase activity was performed in J774 cells preloaded with radio-labeled cholesteryl esters. These experiments were performed in the presence of Sandoz 58-035, an inhibitor of acyl CoA:cholesterol acyl transferase activity, to prevent re-esterification of liberated cholesterol and [^14C]oleate. Incubations proceeded for times ranging from 0 to 24 hours, following which the remaining quantities of [^14C]-labeled cholesteryl oleate in cells were measured to determine the rate of hydrolysis of cholesteryl ester. […] However, an equivalent amount of liposomes containing the synthetic peptide corresponding to amino acid residues 74-103 of murine SAA2.1 caused a 3-fold increase in cholesterol ester hydrolase activity in these cholesterol-laden murine cells. Newly confluent J774 cells were labeled with [^14C]-oleate during cholesterol loading with red blood cell membranes as described above. Cells were then incubated for up to 24 hours with 2 mL of DMEM containing 5% LPDS and 50 μg/mL of either native HDL, SAA-HDL, liposomes containing 2 μmoles of apoA-1, SAA1.1 or 2.1, or liposomes containing 0.5:mol synthetic peptides corresponding to amino acid residues 1-20 (SEQ ID NO:1), 21-50 (SEQ ID NO:2), 51-80 (SEQ ID NO:3) and 74-103 (SEQ ID NO:4) of murine SAA2.1. To determine the rate of cholesteryl ester hydrolysis, 2 μg/mL of the acyl CoA:cholesterol acyl transferase inhibitor Sandoz 58-035 (propanimide, 3-(decyldimethylsilyl)-N-[2-(4-methylphenyl)-1-phenylethyl]-(9Cl) was added during incubation with lipoproteins or liposomes to prevent […] and free cholesterol. To examine whether or not the rate of cholesteryl ester hydrolysis involved the lysosomal cholesteryl ester hydrolase, the cells were cultured in the presence of 50 μg/mL of either native HDL and chloroquine or SAA-HDL and chloroquine (100:M). Chloroquine is an agent that neutralizes the lysosomal proton gradient. At various time points, cellular lipids were extracted and analyzed for cholesteryl ester radioactivity as described above.

For data set [3], the target named is T1, acyl CoA:cholesterol acyl transferase. As to the kind of experiment: ACAT activity in macrophage post-nuclear homogenates. In kind it is biochemical, murine. The note with it: macrophage post-nuclear homogenates as enzyme source. The source says:
The in vitro effects of acute phase-HDL (AP-HDL;HDL-SAA) on acyl CoA:cholesterol acyl transferase and cholesterol ester hydrolase activities and on cellular cholesterol export were studied by the inventors using purified enzymes, cell homogenates, and whole cells. […] In contrast, murine SAA1.1 and apoA-1 had no effect. […] Using macrophages preloaded with radio-labeled cholesterol and injected intravenously into either inflamed or un-inflamed mice, it was shown that the inflamed mice, which have high SAA2.1 levels, effluxed cholesterol more rapidly and to a greater extent (6-fold greater) than their un-inflamed counterparts.

Data set [4] has the same target. As to the kind of experiment: Incorporation of [14C]oleate into cholesteryl ester in cholesterol-laden macrophages (ACAT activity). The format is cell-based, murine. The conditions noted are these: lipoproteins or protein liposomes; tissue culture. How it is done:
The incorporation of [^14C]oleate into cholesteryl ester was used as a measure of acyl CoA:cholesterol acyl transferase activity to identify compositions inhibiting the enzyme activity. The relative acyl CoA:cholesterol acyl transferase activity was determined in cholesterol-laden murine cells that had been cultured in medium in the absence of liposomes or in the presence of protein-free liposomes or liposomes containing 0.5 μM synthetic peptides corresponding to amino acids 1-20, 21-50, 51-80 and 74-103 of murine SAA2.1.
To load the cells with cholesterol, nearly confluent mono-layers were washed 3 times with phosphate buffered saline containing 2 mg/mL fatty acid-free bovine serum albumin (PBS-BSA) and incubated for 5 hours in DMEM supplemented with 5% lipoprotein-depleted serum (LPDS) (d>1.25 g/mL) and 175 μg of red blood cell membrane cholesterol. For the purpose of pool equilibration of added cholesterol, cell cultures were rinsed twice with PBS-BSA and incubated overnight in DMEM containing 5% LPDS. The relative activity of acyl CoA:cholesterol acyl transferase was determined in cholesterol-laden cells that had been cultured in medium containing no liposomes, protein-free liposomes or liposomes containing 0.5:M synthetic peptides corresponding to amino acid residues 1-20 (SEQ ID NO:1), 21-50 (SEQ ID NO:2), 51-80 (SEQ ID NO:3) or 74-103 (SEQ ID NO:4) of murine SAA2.1, respectively. Following 3 hours incubation with the above media, [^14C]-oleate was added and the cells were incubated for another 3 hour period (Mendez et al. J. Clin. Invest. 1994 94:1698-1705; Oram et al. Arterioscler. Thromb. 1991 11:403-414). Cells were chilled on ice and washed twice with PBS-BSA and twice with PBS. After addition of [^3H]-cholesteryl oleate (6000 dpm/well) as an internal standard, the lipids were extracted from the labeled cells and analyzed by thin-layer chromatography as described by Mendez et al. (J. Clin. Invest. 1994 94:1698-1705) and Oram et al. (Arterioscler. Thromb. 1991 11:403-414). The radioactivity in appropriate spots was measured to determine the incorporation of radioactivity into cholesteryl esters as a measure of acyl CoA:cholesterol acyl transferase activity.

The next data set concerns J774 macrophages. Briefly: Cholesterol efflux from cholesterol-laden J774 macrophages to apolipoprotein liposomes with 8-bromo-cAMP or methyl-β-cyclodextrin. In kind it is cell-based, mouse. The conditions noted are these: 8-bromo-cAMP 0.3 mM, 12 hours; Sandoz 58-035 present. An excerpt: The export process of cholesterol is coupled to the ATP binding cassette transporter (ABCA1) pathway. Lipid efflux to apolipoproteins has been shown previously to be stimulated by treatment of murine macrophages with cAMP analogues (Lin et al. 2002 Biochem Biophys Res. Commun. 290:663-669; Oram et al. 2000 J. Biol. Chem. 275:34508-34511). Also, the expression of ABCA1 is induced by cAMP treatment (Lin et al. 2002 Biochem Biophys Res. Commun. 290:663-669; Oram et al. 2000 J. Biol. Chem. 275:34508-34511). The inventors herein examined the effect of 8-bromo-cAMP (0.3 mM) on cholesterol efflux by liposomes containing various apolipoproteins when incubated with cholesterol-laden J774 macrophages. Such cells were pre-labeled with [^3H]-cholesterol in the presence of Sandoz 58-035, an ACAT inhibitor, to ensure that all of the radiolabeled cholesterol released from the cells was derived from the un-esterified cholesterol pool, and the cells were treated for 12 hours with 8-bromo-cAMP. This was followed by incubation with various acceptors. The fractional release of cellular labeled cholesterol was determined as a function of time.
To investigate whether an apolipoprotein free cholesterol acceptor such as cyclodextrin has the ability to catalyze the removal of cholesterol from macrophages, cholesterol-loaded and labeled J774 cells were incubated with liposomes and methyl-β-cyclodextrin (0.1 mM) (CD).
To examine whether cholesterol export from J774 cells to medium containing liposomes containing 2 μM murine apoA-1, SAA1.1 or SAA2.1 is a cAMP-dependent process, the radio-labeled cholesterol-laden cells were incubated overnight with 8-Br-cAMP (0.3 mM), prior to the addition of liposomes containing 2 μM murine apoA-1, SAA1.1 or SAA2.1 to the culture medium. Cholesterol efflux to the medium was then determined at the indicated time points as described above. Efflux of radioactive label to the medium was calculated as a percentage of total counts in each well.

With “GFFSFIGEAFQGAGDMWRAY [SEQ ID NO:5, synthetic peptide, residues 1-20 of murine SAA1.1]”, the “cholesterol efflux, time course (FIG. 4)” value in the data set with THP-1 cells is “inactive”.

Consider “GFFSFVHEAFQGAGDM [murine SAA2.11-16, 16-mer released by cyanogen bromide cleavage of murine SAA2.1, residues 1-16, reference compound]”, for which the “macrophage ACAT activity” value in data set [1] was “profound effect inhibiting ACAT activity in a dose-dependent manner”. The “effect on cholesterol ester hydrolase activity” value in data set [2] (fragment released by cyanogen bromide cleavage) is recorded as “produced no effect”.

In the case of “RGFFSFIGEAFQGAGDMWRAY [SEQ ID NO:7, residues 1-20 of murine SAA1.1 plus an arginine at the N-terminus]”, the “cholesterol efflux, time course (FIG. 4)” value in the data set with THP-1 cells is “effectively increased cholesterol efflux”.

B1: apoA-1: apolipoprotein isolated from acute phase murine plasma, reconstituted in liposomes (protein, UniProt Q00623 25-264, looked up)
Apolipoprotein A-I: DEPQSQWDKVKDFANVYVDAVKDSGRDYVSQFESSSLGQQLNLNLLENWDTLGSTVSQLQERLGPLTRDFWDNLEKETDWVRQEMNKDLEEVKQKVQPYLDEFQKKWKEDVELYRQKVAPLGAELQESARQKLQELQGRLSPVAEEFRDRMRTHVDSLRTQLAPHSEQMRESLAQRLAELKSNPTLNEYHTRAKTHLKTLGEKARPALEDLRHSLMPMLETLKTQVQSVIDKASETLTAQ
modifications: reconstituted in liposomes
For B1, in data set [3], the “acyl CoA:cholesterol acyl transferase activity” value is on record as “had no effect”. The “acyl CoA:cholesterol acyl transferase activity in intact cholesterol-laden macrophages” value in data set [4] is on record as “no effect on enzyme activities”. The “cholesterol ester hydrolase activity in intact cholesterol-laden macrophages” value in data set [2] (lipoproteins or protein liposomes, tissue culture) is on record as “no effect on enzyme activities”. Further, in the data set on J774 macrophages, the “increase in the initial rate of cholesterol efflux to liposomes after cAMP pre-treatment versus untreated cells” value is listed as 32.7%.
